Bridges are numbered along the chain shown (N, C = ends). L10 (R1 : -NH-m-phenylene-NH2) = linker L10: -CO-CH2-NH-CO-CH2-CH2-CH(CO-NH-CH2-COR1)-NH- with R1 = -NH-m-phenylene-NH2; L10 (R1 : -NH-o-phenylene-NH2) = linker L10: -CO-CH2-NH-CO-CH2-CH2-CH(CO-NH-CH2-COR1)-NH- with R1 = -NH-o-phenylene-NH2; L10 (R1 : -NH-p-phenylene-NH2) = linker L10: -CO-CH2-NH-CO-CH2-CH2-CH(CO-NH-CH2-COR1)-NH- with R1 = -NH-p-phenylene-NH2; L15 (R1 : phenyl) = linker L15: -CO-CH2-NH-CO-CH2-CH2-CH(CO-NH-CH2-CO-NH-R1)-NH- with R1 = phenyl (anilide)
Columns and labels:
[1] = molecular target: T1, uPAR expressed on cells (RKO human colon carcinoma cells, HeLa cells, stimulated HUVEC) (human, UniProt Q03405 23-305); assay: competition with 0.2 nM [125I]DFP-uPA on RKO cells, 4 C
T1 construct: whole, on cells; GPI-anchored receptor on whole cells
T1 sequence (Q03405 23-305): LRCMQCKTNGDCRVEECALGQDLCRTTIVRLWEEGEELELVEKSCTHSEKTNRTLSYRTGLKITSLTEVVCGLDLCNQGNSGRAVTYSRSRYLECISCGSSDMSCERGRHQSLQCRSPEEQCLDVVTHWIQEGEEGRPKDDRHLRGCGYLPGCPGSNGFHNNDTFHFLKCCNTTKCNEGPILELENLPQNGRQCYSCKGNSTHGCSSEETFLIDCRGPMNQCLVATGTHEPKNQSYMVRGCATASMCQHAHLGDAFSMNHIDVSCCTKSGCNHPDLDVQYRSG
Experimental: The compounds of the invention were tested for their binding to uPAR by measuring their ability to inhibit the binding of [¹²⁵I]DFP-uPA (catalytically inactivated high molecular weight uPA) to uPAR expressed by RKO (human colon carcinoma) cells. Cells (about 5×10⁴/well) were plated (in MEM with Earle's salts/10% FBS+antibiotics) in 24-well plates, then incubated in a humid 5% CO₂ atmosphere until the cells reach 70% confluence. Catalytically inactivated high molecular weight uPA (DFP-uPA) was radioiodinated using Iodo-gen® (Pierce) to a specific activity of about 250,000 cpm/mg. The cell-containing plates were then chilled on ice and the cells were washed twice (5 minutes each) with cold PBS/0.05% Tween-80. Test compounds were serially diluted in cold PBS/0.1% BSA/0.01% Tween-80 and added to each well to a final volume of 0.3 mL 10 minutes prior to the addition of the [¹²⁵I]DFP-uPA. Each well then receives 9500 cpm of [¹²⁵I]DFP-uPA at a final concentration of 0.2 nM. The plates were incubated at 4° C. for 2 hrs, after which time the cells were washed 3× (5 minutes each) with cold PBS/0.05% Tween-80. NaOH (1N; 0.5 mL) was added to each well to lyse the cells, the contents of each well were aspirated and the total counts in each well determined using a gamma counter. Each compound was tested in triplicate and the results are expressed as a percentage of the total radioactivity measured in wells containing [¹²⁵I]DFP-uPA alone, which is taken to represent maximum (100%) binding.
RTLPPD inhibited the binding of [¹²⁵I]DFP-uPA with an IC₅₀ of approximately 5 nM (FIG. 3). Modification of RTLPPD with Oregon Green shifted the IC₅₀ to approximately 800 nM (FIG. 3) and modification with biotin shifted the IC₅₀ to approximately 1.1 μM (FIG. 4). RTLMPD and RTLOPD inhibited the binding of [¹²⁵I]DFP-uPA to RKO cells with an IC₅₀ of approximately 50 and 100 nM , respectively (FIG. 3).

[2] = molecular target: T1, uPAR expressed on cells (RKO human …); assay: whole-cell competition with [125I]DFP-uPA on HeLa cells, as the method is described; competition for binding to HeLa cells, not BIAcor
Experimental: HeLa cells (about 5×10⁴/well) were plated in medium MEM with Earle's salts/10% FBS+antibiotics) in 24-well plates, then incubated in a humid 5% CO₂ atmosphere until the cells reached 70% confluence. Catalytically inactivated high molecular weight uPA (DFP-uPA) labeled with radioactive ¹²⁵I (specific activity 250,000 cpm/mg) served as the uPAR label. Plates in which the cells were incubated were chilled on ice and the cells were washed twice (5 minutes each) with cold PBS/0.05% Tween-80. DFP-UPA and Å36 were serially diluted in cold PBS/0.1% BSA/0.01% Tween-80 and added to each well to a final volume of 0.3 mL 10 minutes prior to the addition of [¹²⁵I]DFP-UPA. Each well then received 9500 cpm of [¹²⁵I]DFP-UPA at a final concentration of 0.2 nM). The plates were incubated at 4° C. for 2 hrs, after which the cells are washed 3× (5 minutes each) with cold PBS/0.05% Tween-80. Cells were lysed by addition of NaOH (1N) 0.5 mL/well for 5 minutes at room temperature or until all the cells in each well were lysed by microscopic examination. The contents of each well were aspirated, and the total counts in each well were determined using a gamma counter. Each compound was tested in triplicate and the results were expressed as a percentage of the total radioactivity measured in wells containing [¹²⁵I]DFP-uPA alone, which is taken to represent maximum (100%) binding.

IC50 [1] [nM] | Kd [2] [nM] | Binder
~1100 | – | VSNKYFSNIHW (linker N-C via L10 (R1 : -NH-p-phenylene-NH2); also: biotin-X (7-atom spacer) label, site not given here, RTLPPD reacted with Biotin-X-sulfoNHS) [biotin-modified-RTLPPD]
~50 | – | VSNKYFSNIHW (linker N-C via L10 (R1 : -NH-m-phenylene-NH2); also: cyclised by linker L10 between X1 N and X11 carbonyl, also called isomer of RTLPPD incorporating m-phenylenediamine (MPD)) [RTLMPD]
~100 | – | VSNKYFSNIHW (linker N-C via L10 (R1 : -NH-o-phenylene-NH2); also: cyclised by linker L10 between X1 N and X11 carbonyl, also called isomer of RTLPPD incorporating o-phenylenediamine (OPD)) [RTLOPD]
~5 | – | VSNKYFSNIHW (linker N-C via L10 (R1 : -NH-p-phenylene-NH2); also: cyclised by linker L10 between X1 N and X11 carbonyl) [receptor targeting ligand-p-phenylenediamine derivative (RTLPPD)]
– | 30 | VSNKYFSNIHW (linker N-C via L15 (R1 : phenyl); also: cyclised by linker L15 between X1 N and X11 carbonyl, also called A36; cyclic peptide Å36) [Å36]
~800 | – | VSNKYFSNIHW (linker N-C via L10 (R1 : -NH-p-phenylene-NH2); also: Oregon Green (5/6-isomer mix) label, site not certain (intended on phenylenediamine amine), RTLPPD reacted with Oregon Green isothiocyanate; also called Oregon Green-labeled-RTLPPD) [Oregon Green-modified-RTLPPD]

Source: US20040204348A1 (ANGSTROM PHARMACEUTICALS, published 2004)
